These results are taken from IntAct's records for PubMed 24613396.

The labels stand for the following.
B1: F-box only protein 11 (Homo sapiens), Q86XK2 (parent)
chain: MNSVRAANRRPRRVSRPRPVQQQQQQPPQQPPPQPPQQQPPQQQPPPPPQQQQQQQPPPPPPPPPPLPQERNNVGERDDDVPADMVAEESGPGAQNSPYQLRRKTLLPKRTACPTKNSMEGASTSTTENFGHRAKRARVSGKSQDLSAAPAEQYLQEKLPDEVVLKIFSYLLEQDLCRAACVCKRFSELANDPILWKRLYMEVFEYTRPMMHPEPGKFYQINPEEYEHPNPWKESFQQLYKGAHVKPGFAEHFYSNPARYKGRENMLYYDTIEDALGGVQEAHFDGLIFVHSGIYTDEWIYIESPITMIGAAPGKVADKVIIENTRDSTFVFMEGSEDAYVGYMTIRFNPDDKSAQHHNAHHCLEITVNCSPIIDHCIIRSTCTVGSAVCVSGQGACPTIKHCNISDCENVGLYITDHAQGIYEDNEISNNALAGIWVKNHGNPIIRRNHIHHGRDVGVFTFDHGMGYFESCNIHRNRIAGFEVKAYANPTVVRCEIHHGQTGGIYVHEKGRGQFIENKIYANNFAGVWITSNSDPTIRGNSIFNGNQGGVYIFGDGRGLIEGNDIYGNALAGIQIRTNSCPIVRHNKIHDGQHGGIYVHEKGQGVIEENEVYSNTLAGVWVTTGSTPVLRRNRIHSGKQVGVYFYDNGHGVLEDNDIYNHMYSGVQIRTGSNPKIRRNKIWGGQNGGILVYNSGLGCIEDNEIFDNAMAGVWIKTDSNPTLRRNKIHDGRDGGICIFNGGRGLLEENDIFRNAQAGVLISTNSHPILRKNRIFDGFAAGIEITNHATATLEGNQIFNNRFGGLFLASGVNVTMKDNKIMNNQDAIEKAVSRGQCLYKISSYTSYPMHDFYRCHTCNTTDRNAICVNCIKKCHQGHDVEFIRHDRFFCDCGAGTLSNPCTLAGEPTHDTDTLYDSAPPIESNTLQHN

The variants in this assay derive from B1. Particulars: with prdm1_human PRDM1, O75626.
prdm1_human PRDM1, O75626, sequence (O75626 whole entry): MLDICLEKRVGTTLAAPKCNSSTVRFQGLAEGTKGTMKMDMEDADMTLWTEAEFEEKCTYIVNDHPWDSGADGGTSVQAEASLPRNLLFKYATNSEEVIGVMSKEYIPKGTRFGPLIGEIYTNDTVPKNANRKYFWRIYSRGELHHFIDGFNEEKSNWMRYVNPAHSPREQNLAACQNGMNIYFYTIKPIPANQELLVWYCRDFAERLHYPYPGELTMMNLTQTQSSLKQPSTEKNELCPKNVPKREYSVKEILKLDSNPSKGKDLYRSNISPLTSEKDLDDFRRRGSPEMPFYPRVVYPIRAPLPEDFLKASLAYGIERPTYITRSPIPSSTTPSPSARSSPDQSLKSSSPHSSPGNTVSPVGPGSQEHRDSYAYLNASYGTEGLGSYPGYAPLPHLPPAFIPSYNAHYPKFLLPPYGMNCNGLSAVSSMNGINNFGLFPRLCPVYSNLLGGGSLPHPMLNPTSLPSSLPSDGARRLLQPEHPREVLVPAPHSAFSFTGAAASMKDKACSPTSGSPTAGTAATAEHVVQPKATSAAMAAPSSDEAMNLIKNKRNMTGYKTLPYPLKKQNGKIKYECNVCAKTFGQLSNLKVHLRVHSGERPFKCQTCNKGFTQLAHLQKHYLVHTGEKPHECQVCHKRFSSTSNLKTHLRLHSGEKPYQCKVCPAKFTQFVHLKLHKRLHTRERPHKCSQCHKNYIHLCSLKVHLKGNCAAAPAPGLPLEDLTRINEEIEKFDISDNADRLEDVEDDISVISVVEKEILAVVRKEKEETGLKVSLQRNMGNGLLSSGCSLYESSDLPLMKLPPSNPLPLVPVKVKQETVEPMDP
Consider Q575L, for which the “effect of a mutation on the interaction” value is recorded as “disrupting interaction strength”.
